From PMC5346439

Experiments:
[1] = biological target: human MC3 (melanocortin receptor 3) (human) (UniProt P41968)
[2] = biological target: human MC5 (melanocortin receptor 5) (human) (UniProt P33032)
[3] = biological target: human MC4 (melanocortin receptor 4) (human) (UniProt P32245)
[4] = biological target: mouse MC3 (melanocortin receptor 3) (mouse) (UniProt P33033)
Chain of UniProt P33033 (P33033 whole entry): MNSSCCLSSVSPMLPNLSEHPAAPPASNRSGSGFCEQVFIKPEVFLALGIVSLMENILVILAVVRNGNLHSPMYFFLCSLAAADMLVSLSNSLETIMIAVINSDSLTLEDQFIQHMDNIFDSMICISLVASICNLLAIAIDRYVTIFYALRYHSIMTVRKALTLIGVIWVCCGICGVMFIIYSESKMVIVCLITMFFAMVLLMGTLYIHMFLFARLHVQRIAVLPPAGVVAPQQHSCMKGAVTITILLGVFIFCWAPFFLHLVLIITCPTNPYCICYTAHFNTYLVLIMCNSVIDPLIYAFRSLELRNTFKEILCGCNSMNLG

Chain of UniProt P33032 (P33032 whole entry): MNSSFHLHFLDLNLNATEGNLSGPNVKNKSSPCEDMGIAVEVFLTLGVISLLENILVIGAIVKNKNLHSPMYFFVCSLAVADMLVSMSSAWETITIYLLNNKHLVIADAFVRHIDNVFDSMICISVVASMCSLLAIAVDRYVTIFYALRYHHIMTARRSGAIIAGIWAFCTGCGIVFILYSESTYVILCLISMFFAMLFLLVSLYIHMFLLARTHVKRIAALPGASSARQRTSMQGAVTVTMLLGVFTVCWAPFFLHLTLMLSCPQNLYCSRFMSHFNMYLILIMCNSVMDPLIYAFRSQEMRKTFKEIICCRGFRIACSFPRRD
Chain of UniProt P32245 (P32245 whole entry): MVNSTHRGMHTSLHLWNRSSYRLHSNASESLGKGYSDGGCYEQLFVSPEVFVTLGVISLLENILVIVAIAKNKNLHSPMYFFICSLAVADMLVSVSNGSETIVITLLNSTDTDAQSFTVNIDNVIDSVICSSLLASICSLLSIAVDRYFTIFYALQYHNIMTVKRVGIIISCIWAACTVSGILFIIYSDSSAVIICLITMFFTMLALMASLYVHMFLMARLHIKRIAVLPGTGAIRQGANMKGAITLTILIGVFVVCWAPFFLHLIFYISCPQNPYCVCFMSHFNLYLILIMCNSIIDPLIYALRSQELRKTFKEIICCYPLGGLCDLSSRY
Chain of UniProt P41968 (P41968 whole entry): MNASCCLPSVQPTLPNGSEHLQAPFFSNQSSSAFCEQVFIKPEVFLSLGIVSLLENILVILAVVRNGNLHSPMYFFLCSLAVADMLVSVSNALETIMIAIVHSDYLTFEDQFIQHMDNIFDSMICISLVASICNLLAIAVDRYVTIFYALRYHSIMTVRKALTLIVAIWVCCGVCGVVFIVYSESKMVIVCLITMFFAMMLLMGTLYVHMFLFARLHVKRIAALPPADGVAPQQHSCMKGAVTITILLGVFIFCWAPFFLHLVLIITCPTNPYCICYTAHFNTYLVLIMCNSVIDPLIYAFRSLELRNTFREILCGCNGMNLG

NDP-αMSH (peptide)
pEC50 of cAMP production (HTRF cAMP assay) in receptor-transfected cells, with 0-30 μM fenoprofen; 9.40 at 0 μM, highest at 30 μM [1]: 9.66 pEC50 | pEC50 of cAMP production (HTRF cAMP assay) in receptor-transfected cells, with 0-30 μM fenoprofen; 8.98 at 0 μM, highest at 10 μM [2]: 9.06 pEC50 | pEC50 of cAMP production (HTRF cAMP assay) in receptor-transfected cells, with 0-30 μM fenoprofen; highest at 0 μM, 10.38 at 30 μM [3]: 10.5 pEC50 | pEC50 of cAMP production (HTRF cAMP assay) in receptor-transfected cells, with 0-30 μM fenoprofen; 9.78 at 0 μM, highest at 3 μM [4]: 9.86 pEC50

Lys-γ3MSH (peptide)
pEC50 of cAMP production (HTRF cAMP assay) in receptor-transfected cells, with 0-30 μM fenoprofen; 8.80 at 0 μM, highest at 30 μM [1]: 9.35 pEC50 | pEC50 of cAMP production (HTRF cAMP assay) in receptor-transfected cells, with 0-30 μM fenoprofen; 6.13 at 0 μM, highest at 30 μM [2]: 6.8 pEC50 | pEC50 of cAMP production (HTRF cAMP assay) in receptor-transfected cells, with 0-30 μM fenoprofen; 7.33 at 0 μM, highest at 30 μM [3]: 7.72 pEC50 | pEC50 of cAMP production (HTRF cAMP assay) in receptor-transfected cells, with 0-30 μM fenoprofen; 9.19 at 0 μM, highest at 10 μM [4]: 9.3 pEC50

ACTH (peptide)
pEC50 of cAMP production (HTRF cAMP assay) in receptor-transfected cells, with 0-30 μM fenoprofen; 8.19 at 0 μM, highest at 30 μM [1]: 8.87 pEC50 | pEC50 of cAMP production (HTRF cAMP assay) in receptor-transfected cells, with 0-30 μM fenoprofen; 6.78 at 0 μM, highest at 30 μM [2]: 7.29 pEC50 | pEC50 of cAMP production (HTRF cAMP assay) in receptor-transfected cells, with 0-30 μM fenoprofen; 8.76 at 0 μM, highest at 30 μM [3]: 9.25 pEC50 | pEC50 of cAMP production (HTRF cAMP assay) in receptor-transfected cells, with 0-30 μM fenoprofen; 8.69 at 0 μM, highest at 30 μM [4]: 9.03 pEC50

αMSH (melanocyte-stimulating hormone) (peptide)
pEC50 of cAMP production (HTRF cAMP assay) in receptor-transfected cells, with 0-30 μM fenoprofen; 7.58 at 0 μM, highest at 30 μM [1]: 8.3 pEC50 | pEC50 of cAMP production (HTRF cAMP assay) in receptor-transfected cells, with 0-30 μM fenoprofen; 6.64 at 0 μM, highest at 30 μM [2]: 7.22 pEC50 | pEC50 of cAMP production (HTRF cAMP assay) in receptor-transfected cells, with 0-30 μM fenoprofen; 8.38 at 0 μM, highest at 30 μM [3]: 9.11 pEC50 | pEC50 of cAMP production (HTRF cAMP assay) in receptor-transfected cells, with 0-30 μM fenoprofen; 8.33 at 0 μM, highest at 30 μM [4]: 8.86 pEC50
